From PMC8136768 come the findings set out here.

The data set addresses CEBPβ bZIP DNA-binding domain (pXC1599) (Homo sapiens, UniProt P17676 269-344). The experiment in a line: X-ray crystallography.

Chain of CEBPβ bZIP DNA-binding domain (pXC1599) (P17676 269-344): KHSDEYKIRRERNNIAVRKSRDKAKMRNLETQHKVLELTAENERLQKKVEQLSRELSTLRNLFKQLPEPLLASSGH

B1: Crystal 16-mer, T:G mismatch (dsDNA)
DNA 1: AGGATTGTGCAATATA
DNA 2: ATATTGCGCAATCCTT
For the molecule B1, the binding result is given as “binds”.
